In PMC9117268, “HDLBP binds ER-targeted mRNAs by multivalent interactions to promote protein synthesis of transmembrane and secreted proteins”:

Tests used:
[1] = molecular target: T1, HDLBP full-length (FL), Vigilin (Homo sapiens, UniProt Q00341 1-1268); experiment: fluorescence anisotropy; 20 mM Tris pH 7.5, 60 mM KCl, 1 mM EDTA, 10% glycerol, 1 ng/ul tRNA, 1 ng/ul heparin, 0.4 U/ul RNasin, 200 ng/ul BSA; 10 nM RNA probe; 20 min on ice; conditions: protein: recombinant; purification section says GST removed by TEV; label: 5' fluorescein
[2] = molecular target: T1, HDLBP full-length (FL), Vigilin; experiment: as above; conditions: protein: recombinant; purification section says GST removed by TEV; label: 5' fluorescein; remark: listed apart in the source

T1 sequence (Q00341 whole entry): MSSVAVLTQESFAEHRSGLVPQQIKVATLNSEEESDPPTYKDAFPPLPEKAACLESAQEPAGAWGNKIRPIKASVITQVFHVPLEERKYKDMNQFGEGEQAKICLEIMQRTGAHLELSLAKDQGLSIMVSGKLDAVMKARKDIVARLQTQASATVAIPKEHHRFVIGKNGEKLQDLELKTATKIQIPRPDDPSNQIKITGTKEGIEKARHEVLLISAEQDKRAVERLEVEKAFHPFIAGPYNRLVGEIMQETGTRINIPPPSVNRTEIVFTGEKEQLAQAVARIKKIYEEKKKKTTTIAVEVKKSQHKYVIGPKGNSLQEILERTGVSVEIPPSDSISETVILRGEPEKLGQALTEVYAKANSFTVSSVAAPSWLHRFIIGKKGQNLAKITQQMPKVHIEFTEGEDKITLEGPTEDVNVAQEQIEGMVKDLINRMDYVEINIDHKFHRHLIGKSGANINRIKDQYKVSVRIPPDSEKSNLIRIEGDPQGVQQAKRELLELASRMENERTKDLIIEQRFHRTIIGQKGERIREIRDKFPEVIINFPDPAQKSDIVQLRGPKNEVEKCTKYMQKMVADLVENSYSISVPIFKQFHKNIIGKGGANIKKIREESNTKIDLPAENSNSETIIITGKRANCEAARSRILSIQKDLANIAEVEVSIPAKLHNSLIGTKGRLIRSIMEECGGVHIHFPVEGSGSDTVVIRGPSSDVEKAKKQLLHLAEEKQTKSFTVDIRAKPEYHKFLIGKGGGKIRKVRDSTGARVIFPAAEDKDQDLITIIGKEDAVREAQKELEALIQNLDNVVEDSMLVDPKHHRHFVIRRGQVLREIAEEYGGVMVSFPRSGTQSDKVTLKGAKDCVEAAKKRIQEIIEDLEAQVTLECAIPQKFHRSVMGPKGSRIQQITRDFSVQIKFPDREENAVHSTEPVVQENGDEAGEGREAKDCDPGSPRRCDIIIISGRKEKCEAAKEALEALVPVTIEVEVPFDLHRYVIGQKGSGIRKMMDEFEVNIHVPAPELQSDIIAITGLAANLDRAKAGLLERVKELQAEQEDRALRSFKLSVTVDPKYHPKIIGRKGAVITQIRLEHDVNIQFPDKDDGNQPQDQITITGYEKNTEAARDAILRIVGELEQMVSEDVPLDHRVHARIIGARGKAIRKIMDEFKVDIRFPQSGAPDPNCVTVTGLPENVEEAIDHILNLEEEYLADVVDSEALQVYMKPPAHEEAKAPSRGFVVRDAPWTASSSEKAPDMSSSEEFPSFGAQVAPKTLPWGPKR

Binder | binding result [1] | binding signal [2]
AUUCCCUUCCUUCAAUCACACUCAGUUUCCACC (ssRNA) [TFRC_1] | binds | 
CACAGCUCUCCUAUUGAAACUUGCCCAGAUGUU (ssRNA) [TFRC_2] | binds | 
CAACAACAACAACAACAACAACAACAACAACAA (ssRNA) [CAA_oligomer] |  | ~10 fold lower affinity than CCU/CUU oligomers
